# Reference: US6933149B2, “Culture system for mouse tracheal epithelial cells” (North Carolina State University, priority 2001, dated 2005)
# B1: IL-13: recombinant murine IL-13, an inflammatory mediator shown to mediate epithelial cell proliferation (protein, UniProt P20109 19-131, looked up)
# Interleukin-13: APGPVPRSVSLPLTLKELIEELSNITQDQTPLCNGSMVWSVDLAAGGFCVALDSLTNISNCNAIYRTQRILHGLCNRKAPTTVSSLPDTKIEVAHFITKLLSYTKQLFRHGPF
# System: MTE cell cultures
# Experiment: IL-13 treatment of MTE cell cultures, Periodic Acid Schiff-stained cross-sections
# Format: cell-based, mouse
# Conditions: for proliferation of MTE cell cultures in response to IL-13: Method 2 cultures (5% serum until air/liquid interface)
# Description: FIGS. 2A and 2B includes two photographs of Periodic Acid Schiff-stained cross-sections of MTE cell cultures. FIG. 2B depicts the control culture that was only exposed to the normal media required for MTE cell growth, while FIG. 2A depicts the IL-13-treated culture which was exposed to recombinant murine IL-13 (10ng/ml) for 9 days.
# Epithelial cells isolated from the trachea of two mice were used to seed a one cm^2 area. Cells were placed in the apical chamber of the culture insert in medium comprising DMEM F12 plus additives (see above table). The basolateral chamber was supplied with medium and 10% FCS for 24 hours, after which FCS was no longer added to the basolateral media. Cells were maintained for 5 days and then the apical media was removed to create an air/liquid interface. Cells were then maintained in culture for approximately 16 more days.
# The present methods were also used to achieve MTE cultures grown with 5% serum until the air/liquid interface is established. This is referred to as “Method 2—Combination.” This approach allows for more rapid growth of the cells while removing the confounding effects of serum for the experimentation period. […] FIGS. 2A and 2B illustrate the increase in the epithelial cell number of cell cultures exposed to an IL-13 regimen. Specifically FIGS. 2A and 2B show two photographs of Periodic Acid Schiff-stained cross-sections of MTE cell cultures. FIG. 2A depicts an IL-13-treated culture that was exposed to recombinant murine IL-13 (10ng/ml) for 9 days while FIG. 2B is a photograph of a control culture that was only exposed to the normal media required for MTE cell growth.
molecule,measurement,setting,value
B1,proliferation of MTE cell cultures in response to IL-13,,respond to IL-13 with proliferation
same,proliferation of MTE cell cultures in response to IL-13,listed as interleukin 13,proliferate
same,epithelial cell number,"recombinant murine IL-13 10ng/ml for 9 days vs control culture in normal media, FIGS. 2A and 2B",increase in epithelial cell number
